B1: StrepII-tagged Gallus gallus FANCD2 (expressed alone) (natural protein, UniProt Q68Y81 1-1439, looked up)
chain: MVSKRKLSKIDAAEESSKTDLQSRCPETKRSRISDKRAPSQGGLENEGVFEELLRTSGIILKVGEGQNEIAVDQTAFQKKLRVALEKHPSYPGVVNEFISGLESHIKDRSQFKNCLLPCTPARTEGSRTLVHSYCESLIKLLLGIKILQPAVVTLLLEKIPEFFFDVVGTFGTNFPRLIVNQFKWLDGLLDSQDLVKKLMQMLSVSPVPIQHDIITSLPEILEDSQQNEVARELSCLLKQGRRLTVPILDALSRLDLDAELLAEVRQSAMTIVPSVKLEDLPVVIKFILHNVKAADAVEVISDLRKSLDLSSCVLPLQLLGSQRKLKSQAQASSSMSQVTTSQNCVKLLFDVIKQAVRFQKDVSEAWIKAIENSTSVSDHKVLDLIVLLLIHSTNSKNRKQTEKVLRSKIRLGCMPEQLMQNAFQNHSMVIKDFFPSILSLAQTFLHSAHPAVVSFGSCMYKQAFAVFDSYCQQEVVCALVTHVCSGNETELDISLDVLTDLVILHPSLLLRYATFVKTILDSMQKLNPCQIRKLFYILSTLAFSQRQEGSYIQDDMHMVIRKWLSSSVPNHKQMGIIGAVTMMGSVALKRNEADGGLLERPELSIECDGQLSTLLDLVGFCCEQTPEVLALYYDELANLIEKQKGNLDLQLLDKFGKSLVEDFPNDFVVDLSPTVDGSFLFPVKSLYNLDEDETQGAIAINLLPLVSQSEPGRVADEMSNSRKRVVSPICLSPCFRLLRLYTGEQNNGSLEEIDALLGCPLYLTDLEVEGKLDSLSKQEREFLCSLLFYALNWFREVVNAFCQQQDAEMKGKVLTRLQNITELQNVLGKCLAATPGYVPPPATFDSEAPEGVPSINAGGPVRKKNGKKRKSDSSKACSAERTQADESSDGNQPDTELSELEKSATEKETGNPLAQLQSYRPYFRELDLEVFSVLHCGLLTKSILDTEMHTEASEVVQLGPAELCFLLDDMCWKLEHVLTPGSTRRVPFLKERGNKDVGFSHLCQRSPKEVAVCVVKLLKPLCNHMENMHNYFQTVIPNQGVVDESGLNIQEYQLMSSCYHQLLLAFRLLFAWSGFSQHENSNLLRSALQVLADRLKPGETEFLPLEELISESFQYLLNFQASIPSFQCAFILTQVLMAISEKPMTGWKREKMASLAKQFLCQSWMKPGGDREKGSHFNSALHTLLCVYLEHTDNILKAIEEISSVGVPELINSAKDGCSSTYPTLSRQTFPVFFRVMMAQLESSVKSIPAGKPSDSGEVQLEKLLKWNIAVRNFHILINLVKVFDSRPVLSICLKYGRLFVEAFLKLAMPLLDHSFKKHRDDVQSLLKTLQLSTRQLHHMCGHSKIHQDLGLTNHVPLLKKSLEQFVYRVKAMLAFNHCQEAFWVGVLKNRDLQGEEILSQASAAPEEDSAEGSEEDTADSAAEEPDGTDSDSGGAGR
notes: FANCD2, Gallus gallus, full length cDNA synthesized (GeneArt); C-terminal extension with a 3C protease site before the double StrepII tag; no cleavage is described; also called FANCD2 homodimer; D2-D2; source: Sf9, purified (Strep-Tactin, heparin, Superdex 200); not shown: double StrepII, C-terminal, kept

How the values were obtained:
[1] = molecular target: the molecule itself; assay: SEC; Superdex 200 10/300, 50 mM HEPES pH 7.5, 150 mM NaCl, 1 mM TCEP; 300 µl of each protein at 1 µM; mix of 0.5 µM FANCD2 with 1 µM FANCI incubated 30 min at room temperature; fractions by SDS-PAGE
[2] = molecular target: B1; assay: pull-down; StrepII-tagged FANCD2 held on StrepTactin Sepharose, FANCI added at FANCD2:FANCI molar ratios 1:0 to 1:5 and 0:5; 50 mM HEPES pH 7.5, 150 mM NaCl, 1 mM TCEP; 15 min room temperature, 30 min 4 °C on resin, two washes; bound fraction by SDS-PAGE; details: both partners purified

Binder	stoichiometry N [1]	stoichiometry N [2]
B1	2	–
His-tagged Gallus gallus FANCI (expressed alone) (natural protein, UniProt B0I564 1-1338, looked up, FANCI, Gallus gallus, full length cDNA synthesized (GeneArt); C-terminal extension with a 3C protease site before the 6x His tag; no cleavage is described; The results call the FANCI of the pull-down 'untagged', the methods 'His-tagged'; also called free FANCI; monomeric FANCI; source: Sf9, purified (HisTrap, heparin, Superdex 200); not shown: 6x His, C-terminal, kept) MAQRILQLAAEGSPERLQEALQGLTEGELGDMVTRQALRGRETAALLKGIFKGSPCSQQSGVLRRLQVYKHCVSLVESGDLHVGKVSEIIGLLMLEARQLPGHALAELATLFVEVIKRGSLSNGKSLELFSTVLTALSNSKESLAYGKGELNGEEFKKQLINTLCSSKWDPQCVIHLANMFRDIPLSGEELQFVVEKVLRMFSKLDLQEIPPLVYQLLLLSAKGSKKTVLEGIISFFNQLDKRQKEEQRVPQSADLEVATVPLDQLRHVEGTVILHIVSAINLDQDIGEELIKHLKTEQQKDPGKALCPFSVSLLLSTAVKHRLQEQIFDFLKTSITRSCKDLQILQASKFLQDLCPQQYDVTAVILEVVKNSAFGWDHVTQGLVDLGFSLMESYEPKKSFGGKAAETNLGLSKMPAQQACKLGASILLETFKVHEPIRSDILEQVLNRVLTKAASPVSHFIDLLSNIVVSAPLVLQNSSSRVTETFDNLSFLPIDTVQGLLRAVQPLLKVSMSVRDSLILVLQKAIFSRQLDARKAAVAGFLLLLRNFKILGSLTSSQCSQAIGATQVQADVHACYNSAANEAFCLEILGSLRRCLSQQADVRLMLYEGFYDVLRRNSQLASSIMETLLSQIKQYYLPQQDLLPPLKLEGCIMAQGDQIFLQEPLAHLLCCIQHCLAWYKSTVHLCKGAEDEEEEEDVGFEQNFEEMLESVTRRMIKSELEDFELDKSADFSPSSGVGVKNNIYAIQVMGICEVLIEYNFKIGNFSKNKFEDVLGLFTCYNKLSEILKEKAGKNKSTLGNRIARSFLSMGFVSTLLTALFRDNAQSHEESLAVLRSSTEFMRYAVSVALQKVQQLEEMGQTDGPDGQNPEKMFQNLCKITRVLLWRYTSIPTAVEESGKKKGKSISLLCLEGLLRIFNTMQQLYAARIPQFLQALDITDGDAEEADINVTEKAAFQIRQFQRSLVNQLSSAEDDFNSKETQLLITILSTLSKLLDPGSQQFLQFLTWTVKICKENALEDLSCCKGLLTLLFSLHVLYKSPVSLLRELAQDIHACLGDIDQDVEIESRSHFAIVNVKTAAPTVCLLVLGQADKVLEEVDWLIKRLTILGSDTSEDSTQASNQTQALEKGVILQLGTLLTVFHELVQTALPAGSCVDSLLRSLSKTYAILTSLIKHYIQACRSTSNTVPGRLEKLVKLSGSHLTPQCYSFITYVQNIHSESLSFAEEKKKKKKEDETAVVSTVMAKVLRDTKPIPNLIFAIEQYEKFLIHLSKKSKVNLMQYMKLSTSRDFRINASMLDSVLQEQNTEDAENEPDNNQSGTAEQPDENQEPQKKRRRKK	–	~1

Reference: publication doi:10.1101/858225, “FANCD2-FANCI is a clamp stabilized on DNA by monoubiquitination during DNA repair” (bioRxiv, 2019)
